Test results from article PMC3090270 (Structure (London, England : 1993), 2010).

Tests used:
Test in all cases: fluorescence polarisation
[1] = target: Bovine full-length RIα, wild type (bovine, UniProt P00514 1-380)
[2] = target: Bovine full-length RIα C37A (bovine)
[3] = target: Bovine full-length RIα Y19A (bovine)
[4] = target: Bovine full-length RIα C16A (bovine)
[5] = target: Bovine full-length RIα H23A (bovine)

Sequence of Bovine full-length RIα, wild type (P00514 whole entry): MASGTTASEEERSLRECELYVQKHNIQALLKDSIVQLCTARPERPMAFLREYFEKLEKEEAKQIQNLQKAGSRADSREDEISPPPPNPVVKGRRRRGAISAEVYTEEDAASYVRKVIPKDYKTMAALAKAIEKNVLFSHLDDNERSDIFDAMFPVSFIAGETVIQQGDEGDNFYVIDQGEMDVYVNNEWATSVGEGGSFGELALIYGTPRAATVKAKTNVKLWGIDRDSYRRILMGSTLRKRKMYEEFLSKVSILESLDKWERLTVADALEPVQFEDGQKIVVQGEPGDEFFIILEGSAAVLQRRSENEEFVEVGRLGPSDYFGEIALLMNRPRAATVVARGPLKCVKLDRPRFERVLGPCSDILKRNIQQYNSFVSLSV

B1: D-AKAP2 AKB peptide (residues 623-650), last residue changed to Cys, fluorescently labeled (peptide)
chain: VQGNTDEAQEELAWKIAKMIVSDVMQQC
modifications: fluorescin-5-maleimide or tetramethylrhodamine-5-maleimide on the Cys that replaces the last residue
Binder B1 has a Kd [1] of 0.048 µM, a Kd [2] of 0.745 µM and a Kd [3] of 1.33 µM. The Kd [4] was 0.126 µM and the Kd [5] was 0.198 µM.
